5 proteins from patent US20060160990A1 (RIKEN, published 2006) can be followed below.

Series [1] concerns the molecule itself. Briefly: self-association; pseudonative SDS/PAGE, 12.5% acrylamide, sample not boiled. The source says: Since Kaede forms a tetramer, there may be cases where its expression pattern becomes abnormal when another protein is fused with Kaede. Thus, in Kaede, threonine (T) at position 158 was substituted with arginine (R), and alanine (A) at position 160 was substituted with glutamic acid (E), so as to produce a dimeric mutant. This mutant was named as Kaede 2. The amino acid sequence and nucleotide sequence of Kaede 2 are shown in SEQ ID NOS: 7 and 8 in the sequence listing, respectively. In electrophoresis on 12.5% acrylamide gel where sample was not boiled (Pseudonative SDS/PAGE), a band of Kaede 2 was detected as a molecule with a lower molecular weight than that of Kaede (FIG. 8).

Series [2] concerns the molecule itself. Put plainly: self-association; pseudonative SDS/PAGE, 12.5% acrylamide. The source says:
(§1) In Momiji, asparagine (N) at position 11 was substituted with arginine (R), leucine (L) at position 29 was substituted with threonine (T), tyrosine (Y) at position 122 was substituted with glutamic acid (E), lysine (K) at position 136 was substituted with asparagine (N), glutamine (Q) at position 138 was substituted with leucine (L), glutamine (Q) at position 142 was substituted with proline (P), asparagine (N) at position 159 was substituted with aspartic acid (D), alanine (A) at position 161 was substituted with serine (S), tyrosine (Y) at position 190 was substituted with threonine (T), phenylalanine (F) at position 192 was substituted with tyrosine (Y), cysteine (C) at position 196 was substituted with serine (S), and 6 amino acids from position 224 to position 229 were deleted. By such operations, the above Momiji became a dimer (FIG. 24). This dimer had fluorescence properties that ultraviolet ray-irradiation-dependently change from green to red, which were equivalent to those of Momiji (FIG. 25). This mutant was named as d16. The amino acid sequence and nucleotide sequence of d16 are shown in SEQ ID NOS: 15 and 16, respectively.

Series [3] concerns the molecule itself. Briefly: pseudonative SDS/PAGE, 12.5% acrylamide gel (self-association).
Series [4] concerns the molecule itself. Put plainly: self-association; pseudonative SDS/PAGE, 12.5% acrylamide, not boiled.
Description: as §1

Numbering of substitutions follows the chain as printed. Names and notes keep the numbering of the source.

B1: Kaede (fluorescent protein derived from Trachyphyllia geoffroyi) (other)
chain: MSLIKPEMKIKLLMEGNVNGHQFVIEGDGKGHPFEGKQSMDLVVKEGAPLPFAYDILTTAFHYGNRVFAKYPDHIPDYFKQSFPKGFSWERSLMFEDGGVCIATNDITLKGDTFFNKVRFDGVNFPPNGPVMQKKTLKWEASTEKMYLRDGVLTGDITMALLLKGDVHYRCDFRTTYKSRQEGVKLPGYHFVDHCISILRHDKDYNEVKLYEHAVAHSGLPDNVK
notes: also called first fluorescent protein of the present invention; not shown: N-terminal His-tag from the pRSETB vector
In the case of B1, the binding result in series [1] is “binds”.

B2: Kaede 2 (dimeric mutant of Kaede, T158R and A160E) (other)
chain: B1 chain with T158R, A160E
notes: No tag or expression construct is stated for the gel sample
In the case of B2, the binding result in series [1] was “binds”.

B3: d16 (dimeric mutant of Momiji) (other)
chain: MVSVIKDEMKVRLRMEGSVNGHDFVIDGTGSGKPKEGTQTIELKVVKGGPLPFAYDILTTAFHYGNRVFAKYPKDIPNYFEQSFPEGYSWERSMIFEDGGICIARNDITMDGGTFYNKVRFEGVNFPPNGPVMQKNTLKWEPSTEKMYARDGVLTGDIDMSLLLKGGGHYRCDFRTTFKAKEKGVKLPGTHYIDHSIEILSHRNDYNNVTLFEHAVARSGLQD
notes: No tag is stated for the gel sample
Regarding B3, the binding result in series [2] is “binds”.

B4: m16 (monomeric mutant of Momiji) (other)
chain: B3 chain with I95T, I101V, I103T, V124T, N136K, F174M, F212Y
notes: as for B3
As for B4, the binding result in series [3] was “no binding”.

B5: Momiji (fluorescent protein derived from Scolymia vitiensis) (other)
chain: MVSVIKDEMKVNLRMEGSVNGHDFVIDGLGSGKPKEGTQTIELKVVKGGPLPFAYDILTTAFHYGNRVFAKYPKDIPNYFEQSFPEGYSWERSMIFEDGGICIARNDITMDGGTFYNKVRFYGVNFPPNGPVMQKKTQKWEQSTEKMYARDGVLTGDINMALLLKGGGHYRCDFRTTFKAKEKGVKLPGYHFIDHCIEILSHRNDYNNVTLFEHAVARSGLQDKEKQQQ
notes: Found to be a tetramer by pseudonative SDS/PAGE; also called WT (Momiji); wild type (Momiji); not shown: His-tag from the pET28 vector, said to be at the N-terminus
Take B5: the binding result in series [4] is listed as “binds”.
